Measurements from the supplement of paper PMC10567573.

B1: TMEM175 (parent)
chain: QTSAFARQPRDELERVRVSCTIIF
B2: RAD51 (parent)
chain: APKKELINIKGISEAKADKILAEA

Variants of: B1
Test: protein stability index of a GFP-peptide fusion (GPS, HEK-293T) (PSI 1-6); higher = more stable
Settings: c terminus: a fixed tail appended
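Further: lentivirally expressed fusions sorted by FACS into six bins by GFP to DsRed ratio, PSI derived from sequencing read proportions per bin multiplied by bin number.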

Protein stability index, by site and new letter:
I23: R 2.21 | G 2.83 | N 2.37 | V 3.26 | S 2.69 | Q 1.79 | F 3.33 | K 2.07 | P 3.13 | M 2.91 | L 1.82 | Y 2.6 | H 2.56
F24: Y 2.08 | D 3.47 | L 2.47 | E 3.76 | T 1.64 | N 2.48 | W 1.21 | G 2.12 | R 2.37 | C 2.66 | S 2.46 | K 3.15 | H 2.01 | Q 2.56 | M 2.35 | P 2.78 | A 2.02

Variants of: B2
Test: as above
Settings: c terminus: a fixed tail appended

Protein stability index of substitutions, site by site:
K3: N 4.58 | P 4.83 | C 4.28 | Q 4.81 | G 4.65 | S 4.55 | D 4.71 | I 4.77 | L 3.3 | A 4.92 | F 3.48 | V 5.06 | M 3.95 | W 3.81 | E 4.94 | R 4.58 | H 4.87 | Y 3.85 | T 4.97
S13: E 5.23 | Y 3.71 | V 4.02 | N 4.65 | W 4.12 | A 4.97 | Q 4.83 | C 4.43 | P 4.88 | F 3.73 | H 5.38 | L 4.21 | D 5.12 | I 3.86 | R 4.36 | K 4.7 | T 5.02 | M 4.56
N8: W 3.75 | I 3.43 | L 3.5 | S 4.32 | Y 4.39 | Q 4.67 | T 4.01 | D 4.88 | R 4.79 | K 4.13 | H 4.69 | E 5.07 | M 4.17 | F 3.76 | P 4.88 | A 4.7 | V 4.07
I12: E 4.54 | Y 4.13 | F 4.33 | L 4.64 | C 4.96 | A 5.28 | D 5.91 | T 5.16 | K 5.36 | R 5.14 | M 4.98 | H 5.44 | N 5.06 | W 4.36 | P 5.15 | G 4.69 | V 4.7 | Q 5.33 | S 5.27
A15: W 3.88 | C 4.63 | R 4.4 | L 4.27 | N 4.36 | K 4.95 | F 4.45 | M 4.41 | P 4.41 | Y 3.58 | G 4.81 | Q 4.58 | H 4.18 | V 4.95 | S 4.78 | E 5.25 | D 4.64 | I 4.77 | T 5.07
E5: I 3.4 | T 3.85 | A 4.12 | S 4.34 | R 4.16 | M 3.7 | W 3.01 | V 3.65 | F 3.04 | K 4 | Y 3.1 | C 3.56 | G 4.63 | Q 3.96 | H 4.48 | N 4.22 | P 4.54 | L 3.65 | D 4.6
K4: Y 4.52 | D 5.31 | N 4.95 | P 5.05 | H 4.17 | T 4.69 | S 4.96 | L 4.19 | V 4.82 | Q 4.6 | R 4.39 | F 4.5 | I 4.25 | C 4.68 | G 4.57 | A 4.44 | W 3.98 | M 4.13 | E 5.22
I7: C 4.21 | E 5.17 | G 4.8 | A 5.13 | L 5.31 | T 5.04 | W 4.49
